Test results reported in paper PMC11898274, “Interleukin-34 orchestrates bone formation through its binding to bone morphogenic proteins” (Theranostics, 2025).

Key:
[1] = biological target: T1, Recombinant human bone morphogenetic protein 2 (BMP2) (human, UniProt P12643 283-396); experiment: SPR
T1 chain: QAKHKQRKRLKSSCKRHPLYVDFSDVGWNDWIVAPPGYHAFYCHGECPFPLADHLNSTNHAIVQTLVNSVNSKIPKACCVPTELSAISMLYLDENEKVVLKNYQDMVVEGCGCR

[2] = biological target: T2, Recombinant human bone morphogenetic protein 4 (BMP4) (human, UniProt P12644 293-408); experiment: SPR
T2 chain: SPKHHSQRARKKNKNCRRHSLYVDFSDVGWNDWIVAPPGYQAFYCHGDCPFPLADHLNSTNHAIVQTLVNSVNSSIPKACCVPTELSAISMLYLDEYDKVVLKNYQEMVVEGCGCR

[3] = biological target: T3, Recombinant human bone morphogenetic protein 7 (BMP7) (human, UniProt P18075 293-431); experiment: SPR
T3 chain: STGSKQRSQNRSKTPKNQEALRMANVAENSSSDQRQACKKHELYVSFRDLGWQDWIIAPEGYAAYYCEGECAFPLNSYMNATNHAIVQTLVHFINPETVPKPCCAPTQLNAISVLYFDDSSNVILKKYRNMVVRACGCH

[4] = biological target: T4, Recombinant human interleukin-34 (IL34) (human, UniProt Q6ZMJ4 21-242); experiment: SPR; BMP2, BMP4 or BMP7 immobilised (1500-2300 RU) on CM5-S chip by amine coupling at pH 4.5; IL34 injected in one cycle titration (12.5-200 nM, 60 s, 100 µL/min), 600 s dissociation; T200, 25 °C, PBS pH 7.4 with 0.05% P20; bivalent fitting model; conditions: both partners purified
T4 construct: Interleukin-34, human, recombinant; source: bought: R&D Systems
T4 sequence (looked up): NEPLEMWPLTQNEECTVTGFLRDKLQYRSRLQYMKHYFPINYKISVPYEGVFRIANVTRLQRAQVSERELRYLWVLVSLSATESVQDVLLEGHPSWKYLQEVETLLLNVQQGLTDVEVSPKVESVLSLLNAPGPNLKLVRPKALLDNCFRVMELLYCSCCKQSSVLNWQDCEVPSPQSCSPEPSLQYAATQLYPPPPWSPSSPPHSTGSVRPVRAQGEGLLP

[5] = biological target: T4, Recombinant human interleukin-34 (IL34); experiment: SPR; receptors captured on immobilized anti-human Fc; IL34 injected (18.75, 37.5, 75, 150, 300 nM); T200, 25 °C, PBS pH 7.4 with 0.05% P20; steady-state fitting model; conditions: both partners purified

B1: Recombinant human interleukin-34 (IL34) (ligand)
chain: NEPLEMWPLTQNEECTVTGFLRDKLQYRSRLQYMKHYFPINYKISVPYEGVFRIANVTRLQRAQVSERELRYLWVLVSLSATESVQDVLLEGHPSWKYLQEVETLLLNVQQGLTDVEVSPKVESVLSLLNAPGPNLKLVRPKALLDNCFRVMELLYCSCCKQSSVLNWQDCEVPSPQSCSPEPSLQYAATQLYPPPPWSPSSPPHSTGSVRPVRAQGEGLLP
[1]
  koff: 0.0229 s⁻¹
[2]
  koff: 0.0467 s⁻¹
[3]
  koff: 0.0561 s⁻¹

B2: Recombinant human bone morphogenetic protein 2 (BMP2) (ligand, UniProt P12643 283-396, looked up)
chain: QAKHKQRKRLKSSCKRHPLYVDFSDVGWNDWIVAPPGYHAFYCHGECPFPLADHLNSTNHAIVQTLVNSVNSKIPKACCVPTELSAISMLYLDENEKVVLKNYQDMVVEGCGCR
notes: Bone morphogenetic protein 2, human, recombinant; source: bought: R&D Systems
[4]
  Kd: 363 nM

B3: Recombinant human bone morphogenetic protein 7 (BMP7) (ligand, UniProt P18075 293-431, looked up)
chain: STGSKQRSQNRSKTPKNQEALRMANVAENSSSDQRQACKKHELYVSFRDLGWQDWIIAPEGYAAYYCEGECAFPLNSYMNATNHAIVQTLVHFINPETVPKPCCAPTQLNAISVLYFDDSSNVILKKYRNMVVRACGCH
notes: Bone morphogenetic protein 7, human, recombinant; source: bought: R&D Systems
[4]
  Kd: 922 nM

B4: Human Activin RIIB receptor (ActRIIB) (Fc fusion, UniProt Q13705 19-137, looked up)
chain: SGRGEAETRECIYYNANWELERTNQSGLERCEGEQDKRLHCYASWRNSSGTIELVKKGCWLDDFNCYDRQECVATEENPQVYFCCCEGNFCNERFTHLPEAGGPEVTYEPPPTAPTLLT
notes: Activin receptor type-2B, human recombinant; source: bought: R&D Systems
[5]
  binding result: binds

B5: Recombinant human bone morphogenetic protein 4 (BMP4) (ligand, UniProt P12644 293-408, looked up)
chain: SPKHHSQRARKKNKNCRRHSLYVDFSDVGWNDWIVAPPGYQAFYCHGDCPFPLADHLNSTNHAIVQTLVNSVNSSIPKACCVPTELSAISMLYLDEYDKVVLKNYQEMVVEGCGCR
notes: Bone morphogenetic protein 4, human, recombinant; source: bought: R&D Systems
[4]
  Kd: 426 nM
